Patent US20190359687A1 (Bayer, published 2019)

Tests used:
[1] = target: T1, Cynomolgus monkey glycophorin A on Cynomolgus monkey red blood cells or red blood cell membranes (Cynomolgus monkey); test: Fab 7 ug/ml on intact cyno RBC, unbound Fab by ELISA; pre-dilution
T1 construct: whole, on cells; also called Cyno RBC; Cynomolgus monkey RBC membranes
Method: (§1) The binding of affinity matured Fab antibodies to intact Cynomolgus monkey RBC was measured. Cynomolgus monkey RBC were isolated from fresh anti-coagulated blood by centrifugation through a ficol gradient and washing in PBS buffer. RBC diluted to 1/10th of normal hematocrit were incubated with the Fab at a final concentration of 7 ug/ml for 1 hour at room temperature on a rotating shaker after which a sample was taken and the RBC were pelleted by centrifugation and the supernatant was collected. The remaining RBC suspension was diluted 200-fold in PBS buffer and incubated for a total of 2 hours at room temperature on a rotating shaker and samples were removed at 0, 5 min, 20 min, 1 h and 2 h and the RBC pelleted and the supernatant collected. […] The amount of Fab in the supernatants was then measured using an ELISA assay and the results used to calculate the percentage of the input Fab that was bound to the RBC.

[2] = target: T2, human glycophorin A on human red blood cells or red blood cell membranes (human, UniProt P02724 20-150); test: Fab 7 ug/ml on intact human RBC, unbound Fab by ELISA; pre-dilution
T2 construct: whole, on cells; also called hRBC; human RBC membranes
T2 sequence (looked up): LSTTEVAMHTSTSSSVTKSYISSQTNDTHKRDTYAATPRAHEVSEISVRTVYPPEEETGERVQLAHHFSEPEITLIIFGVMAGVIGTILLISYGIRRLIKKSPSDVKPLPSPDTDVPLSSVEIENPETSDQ

[3] = target: T2, human glycophorin A on human red blood …; test: SPR (Biacore), Fab on human RBC membranes; T½ = 0.69/kd; * not accurate
Method: (§2) Kinetic analysis of the antibody binding to human red blood cell membranes was also performed using surface plasmon resonance (SPR) using a Biacore instrument. In this assay membranes prepared from human red blood cells were attached to a L1 sensor matrix and antibodies were flowed over the RBC membranes.
(§3) The binding kinetics of the affinity matured Fab antibodies was also measured.

[4] = target: T2, human glycophorin A on human red blood …; test: SPR (Biacore), Fab on human RBC membranes; * not accurate, instrument limit
Method: as §2, §3

[5] = target: T1, Cynomolgus monkey glycophorin A on …; test: Fab on intact cyno RBC, unbound Fab by ELISA; 0 min after 200-fold dilution
Method: as §1

[6] = target: T1, Cynomolgus monkey glycophorin A on …; test: Fab on intact cyno RBC, unbound Fab by ELISA; 5 min after 200-fold dilution
[7] = target: T2, human glycophorin A on human red blood …; test: Fab on intact human RBC, unbound Fab by ELISA; 0 min after 200-fold dilution
Method: (§4) The binding of affinity matured Fab antibodies to intact human RBC was also measured. Human RBC were isolated from fresh anti-coagulated normal human blood by centrifugation through a ficol gradient and washing in PBS buffer. RBC diluted to 1/10th of normal hematocrit were incubated with purified Fab antibodies at a final concentration of 7 ug/ml for 1 hour at room temperature on a rotating shaker after which a sample was taken and the RBC were pelleted by centrifugation and the supernatant was collected. The remaining RBC suspension was diluted 200-fold in PBS buffer and incubated for a total of 2 hours at room temperature on a rotating shaker and samples were removed at 0, 5 min, 20 min, 1 h and 2 h and the RBC pelleted and the supernatant collected. The amount of Fab in the supernatants was then measured using an ELISA assay and the results used to calculate the percentage of the input Fab that was bound to the RBC. […] The percentage that remains bound after 200-fold dilution of the RBC suspension is an indication of the overall strength of the binding to human RBC.

[8] = target: T2, human glycophorin A on human red blood …; test: Fab on intact human RBC, unbound Fab by ELISA; 5 min after 200-fold dilution
Method: as §4

[9] = target: T1, Cynomolgus monkey glycophorin A on …; test: Fab on intact cyno RBC, unbound Fab by ELISA; 20 min after 200-fold dilution
[10] = target: T1, Cynomolgus monkey glycophorin A on …; test: Fab on intact cyno RBC, unbound Fab by ELISA; 60 min after 200-fold dilution
[11] = target: T2, human glycophorin A on human red blood …; test: Fab on intact human RBC, unbound Fab by ELISA; 20 min after 200-fold dilution
Method: as §4

[12] = target: T2, human glycophorin A on human red blood …; test: Fab on intact human RBC, unbound Fab by ELISA; 60 min after 200-fold dilution
Method: as §4

[13] = target: T1, Cynomolgus monkey glycophorin A on …; test: Fab on intact cyno RBC, unbound Fab by ELISA; 120 min after 200-fold dilution
[14] = target: T2, human glycophorin A on human red blood …; test: Fab on intact human RBC, unbound Fab by ELISA; 120 min after 200-fold dilution
Method: as §4

[15] = target: T3, native human glycophorin A protein (human, UniProt P02724 20-150); test: ELISA, Fab on coated native human GPA
T3 construct: mature; also called Hu-nat GPA
T3 sequence (looked up): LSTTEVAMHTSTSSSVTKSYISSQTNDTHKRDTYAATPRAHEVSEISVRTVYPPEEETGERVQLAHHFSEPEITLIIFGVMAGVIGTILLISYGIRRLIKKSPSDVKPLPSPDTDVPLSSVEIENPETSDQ

[16] = target: T2, human glycophorin A on human red blood …; test: ELISA, Fab on coated human RBC membranes
[17] = target: T4, Cynomolgus monkey recombinant glycophorin A ectodomain (Cynomolgus monkey); test: ELISA, Fab on coated recombinant cyno GPA ectodomain
T4 construct: extracellular domain

[18] = target: T5, recombinant human glycophorin A ectodomain protein (human, UniProt P02724 20-91); test: ELISA, Fab on coated recombinant human GPA ectodomain
T5 construct: 72 amino acids of the extracellular region; also called Hu-rec GPA
T5 sequence: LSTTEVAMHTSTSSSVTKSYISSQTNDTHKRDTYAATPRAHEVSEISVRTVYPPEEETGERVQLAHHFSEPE

[19] = target: T2, human glycophorin A on human red blood …; test: SPR (Biacore), Fab over human RBC membranes, 1:1 fit; * slight deviation possible
Method: as §2

[20] = target: T1, Cynomolgus monkey glycophorin A on …; test: ELISA, Fab on coated cyno RBC membranes
[21] = target: T2, human glycophorin A on human red blood …; test: SPR (Biacore), Fab over human RBC membranes, 1:1 fit;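 also: human RBC membrane preparations captured on an L1 sensor surface, with antibody passed over them as analyte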
Method: as §2

Binder	binding in ELISA relative to parental Fab [15]	binding in ELISA relative to parental Fab [16]	binding in ELISA relative to parental Fab [17]	binding in ELISA relative to parental Fab [18]	binding in ELISA relative to parental Fab [20]	Kd [21]	koff [21]	kon [21]	other results
TPP-7794, affinity matured 6C12 Fab (Fab, V domains shown, Tested as Fab) VH: EVQLVQSGAEVKKPGASVKVSCKASGYTFTTYAIHWVRQAPGQGLEWMGYINPSSGYTRYNPKFKHRVTMTRDKSTSTAYMELRSLRSDDTAVYYCWTGTRDYWGQGTTVTVSS VL: DIQLTQSPSFLSASVGDRVTITCRASSSVRYIYWFQQKPGKAPKLLIYATSFRQSGVPSRFSGSGSGTEYTLTISSLQPEDFATYYCHQRNSFPYTFGQGTKLEIK									percentage of input antibody bound [1]: 73%; percentage of input antibody bound [2]: 93%; Estimated T½ [3]: 922 days; Kd [4]: < 0.01 nM; koff [4]: < 2e-05 s⁻¹; kon [4]: 2.22e+07 M⁻¹ s⁻¹; percentage of input antibody bound [5]: 67%; percentage of input antibody bound [6]: 66%; percentage of input antibody bound [7]: 92%; percentage of input antibody bound [8]: 91%; percentage of input antibody bound [9]: 65%; percentage of input antibody bound [10]: 67%; percentage of input antibody bound [11]: 90%; percentage of input antibody bound [12]: 90%; percentage of input antibody bound [13]: 57%; percentage of input antibody bound [14]: 90%
TPP-7797, affinity matured 6C12 Fab (Fab, V domains shown, Tested as Fab) VH: EVQLVQSGAEVKKPGASVKVSCKASGYTFTTYTIHWVRQAPGQGLEWMGYINPSSGYTRYNPKFKGRVTMTRDKSTSTAYMELRSLRSDDTAVYYCWTGRRDYWGQGTTVTVSS VL: DIQLTQSPSFLSASVGDRVTITCRASSSVRYIYWFQQKPGKAPKLLIYATSFRQSGVPSRFSGSGSGTEYTLTISSLQPEDFATYYCHQRNSFPYTFGQGTKLEIK									percentage of input antibody bound [1]: 79%; percentage of input antibody bound [2]: 97%; Estimated T½ [3]: 0.487 days; Kd [4]: 0.000253 nM; koff [4]: 1.64e-05 s⁻¹; kon [4]: 6.49e+07 M⁻¹ s⁻¹; percentage of input antibody bound [5]: 81%; percentage of input antibody bound [6]: 66%; percentage of input antibody bound [7]: 96%; percentage of input antibody bound [8]: 95%; percentage of input antibody bound [9]: 59%; percentage of input antibody bound [10]: 56%; percentage of input antibody bound [11]: 94%; percentage of input antibody bound [12]: 94%; percentage of input antibody bound [13]: 50%; percentage of input antibody bound [14]: 92%
TPP-4935, humanized 6C12 parental Fab (Hu6C12-24) (Fab, V domains shown, also called parent Fab; TPP-4935 (Parental)) VH: EVQLVQSGAEVKKPGASVKVSCKASGYTFTTYTIHWVRQAPGQGLEWIGYINPSSDYTRYNPKFKDRVTLTTDKSTSTAYMELRSLRSDDTAVYYCQTGTRDYWGQGTTVTVSS VL: DIQLTQSPSFLSASVGDRVTITCSAASSVSYIYWFQQKPGKAPKLLIYSTSTLPSGVPSRFSGSGSGTEYTLTISSLQPEDFATYYCHQRNSFPFTFGQGTKLEIKR	1 relative to parental Fab	1 relative to parental Fab	1 relative to parental Fab	1 relative to parental Fab					Kd [19]: 167 nM; koff [19]: 0.031 s⁻¹; kon [19]: 190000 M⁻¹ s⁻¹
TPP-5702, Hu6C12-24 Fab variant VL: (S24R, A26S, S49A, P54Q, F95Y) (Fab, V domains shown, Built on the parental Fab TPP-4935) VH: EVQLVQSGAEVKKPGASVKVSCKASGYTFTTYTIHWVRQAPGQGLEWIGYINPSSDYTRYNPKFKDRVTLTTDKSTSTAYMELRSLRSDDTAVYYCQTGTRDYWGQGTTVTVSS VL: DIQLTQSPSFLSASVGDRVTITCRASSSVSYIYWFQQKPGKAPKLLIYATSTLQSGVPSRFSGSGSGTEYTLTISSLQPEDFATYYCHQRNSFPYTFGQGTKLEIKR	5.2 relative to parental Fab	10.2 relative to parental Fab	1.1 relative to parental Fab	4.3 relative to parental Fab	1.1 relative to parental Fab	170 nM	0.11 s⁻¹	650000 M⁻¹ s⁻¹	
TPP-5835, Hu6C12-24 Fab variant VL: (S24R, A26S, S49A, P54Q, F95Y); VH: (I48M, L70M) (Fab, V domains shown, Built on the parental Fab TPP-4935) VH: EVQLVQSGAEVKKPGASVKVSCKASGYTFTTYTIHWVRQAPGQGLEWMGYINPSSDYTRYNPKFKDRVTMTTDKSTSTAYMELRSLRSDDTAVYYCQTGTRDYWGQGTTVTVSS VL: DIQLTQSPSFLSASVGDRVTITCRASSSVSYIYWFQQKPGKAPKLLIYATSTLQSGVPSRFSGSGSGTEYTLTISSLQPEDFATYYCHQRNSFPYTFGQGTKLEIKR	5.2 relative to parental Fab	10.3 relative to parental Fab	1.1 relative to parental Fab	4.3 relative to parental Fab	1.4 relative to parental Fab				
TPP-5839, Hu6C12-24 Fab variant VL: (S24R, A26S, S49A, P54Q, F95Y); VH: (I48M, D66G, L70M, T72R) (Fab, V domains shown, Built on the parental Fab TPP-4935) VH: EVQLVQSGAEVKKPGASVKVSCKASGYTFTTYTIHWVRQAPGQGLEWMGYINPSSDYTRYNPKFKGRVTMTRDKSTSTAYMELRSLRSDDTAVYYCQTGTRDYWGQGTTVTVSS VL: DIQLTQSPSFLSASVGDRVTITCRASSSVSYIYWFQQKPGKAPKLLIYATSTLQSGVPSRFSGSGSGTEYTLTISSLQPEDFATYYCHQRNSFPYTFGQGTKLEIKR	5.8 relative to parental Fab	5.8 relative to parental Fab	1.2 relative to parental Fab	4.7 relative to parental Fab	2.3 relative to parental Fab	1.6 nM	0.0035 s⁻¹	2.1e+06 M⁻¹ s⁻¹	
TPP-5841, Hu6C12-24 Fab variant VL: (S24R, A26S, S49A, P54Q, F95Y); VH: (D66G, L70M) (Fab, V domains shown, Built on the parental Fab TPP-4935) VH: EVQLVQSGAEVKKPGASVKVSCKASGYTFTTYTIHWVRQAPGQGLEWIGYINPSSDYTRYNPKFKGRVTMTTDKSTSTAYMELRSLRSDDTAVYYCQTGTRDYWGQGTTVTVSS VL: DIQLTQSPSFLSASVGDRVTITCRASSSVSYIYWFQQKPGKAPKLLIYATSTLQSGVPSRFSGSGSGTEYTLTISSLQPEDFATYYCHQRNSFPYTFGQGTKLEIKR	5.8 relative to parental Fab	11.9 relative to parental Fab	1.2 relative to parental Fab	4.7 relative to parental Fab	2.1 relative to parental Fab	3.3 nM	0.0043 s⁻¹	1.3e+06 M⁻¹ s⁻¹	
TPP-5907, humanized and germlined 6C12 Fab; VL: (S24R, A26S, S49A, P54Q, F95Y); VH: (I48M, S54G, D56G, D66G, L70M, T72R) (Fab, V domains shown) VH: EVQLVQSGAEVKKPGASVKVSCKASGYTFTTYTIHWVRQAPGQGLEWMGYINPGSGYTRYNPKFKGRVTMTRDKSTSTAYMELRSLRSDDTAVYYCQTGTRDYWGQGTTVTVSS VL: DIQLTQSPSFLSASVGDRVTITCRASSSVSYIYWFQQKPGKAPKLLIYATSTLQSGVPSRFSGSGSGTEYTLTISSLQPEDFATYYCHQRNSFPYTFGQGTKLEIKR	12.3 relative to parental Fab	90.1 relative to parental Fab	1.4 relative to parental Fab	6.9 relative to parental Fab	1.9 relative to parental Fab	0.8 nM	0.004 s⁻¹	4.9e+06 M⁻¹ s⁻¹	
